{"source": "patent US12428633B2", "about": "“Inducible dimerization of recombinases” (TRUSTEES OF BOSTON UNIVERSITY, priority 2016, dated 2025)", "molecules": {"B1": {"name": "VCre 172: VCre (SEQ ID NO: 16) split into aa 1-172 and 173-380, fused to CIDD pair (protein)", "chain": "MIENQLSLLGDFSGVRPDDVKTAIQAAQKKGINVAENEQFKAAFEHLLNEFKKREERYSPNTLRRLESAWTCFVDWCLANHRHSLPATPDTVEAFFIERAEELHRNTLSVYRWAISRVHRVAGCPDPCLDIYVEDRLKAIARKKVREGEAVKQASPFNEQHLLKLTSLWYRSDKLLLRRNLALLAVAYESMLRASELANIRVSDMELAGDGTAILTIPITKTNHSGEPDTCILSQDVVSLLMDYTEAGKLDMSSDGFLFVGVSKHNTCIKPKKDKQTGEVLHKPITTKTVEGVFYSAWETLDLGRQGVKPFTAHSARVGAAQDLLKKGYNTLQIQQSGRWSSGAMVARYGRAILARDGAMAHSRVKTRSAPMQWGKDEKD", "modifications": "split at 172/173; CIDD pair fusions lack entries"}, "B2": {"name": "VCre 269: VCre (SEQ ID NO: 16) split into aa 1-269 and 270-380, fused to CIDD pair (protein)", "chain": "B1 chain", "modifications": "split at 269/270; CIDD pair fusions lack entries"}, "B3": {"name": "VCre 277: VCre (SEQ ID NO: 16) split into aa 1-277 and 278-380, fused to CIDD pair (protein)", "chain": "B1 chain", "modifications": "split at 277/278; CIDD pair fusions lack entries"}, "B4": {"name": "VCre 82: VCre (SEQ ID NO: 16) split into aa 1-82 and 83-380, fused to CIDD pair (protein)", "chain": "B1 chain", "modifications": "split at 82/83; CIDD pair fusions lack entries"}, "B5": {"name": "Flp 168: Flp (SEQ ID NO: 1) split into aa 1-168 and 169-423, fused to CIDD pair (protein)", "chain 1": "MSQFDILCKTPPKVLVRQFVERFERPSGEKIASCAAELTYLCWMITHNGTAIKRATFMSYNTIISNSLSFDIVNKSLQFKYKTQKATILEASLKKLIPAWEFTIIPYNGQKHQSDITDIVSSLQLQFESSEEADKGNSHSKKMLKALLSEGESIWEITEKILNSFEYT", "chain 2": "SRFTKTKTLYQFLFLATFINCGRFSDIKNVDPKSFKLVQNKYLGVIIQCLVTETKTSVSRHIYFFSARGRIDPLVYLDEFLRNSEPVLKRVNRTGNSSSNKQEYQLLKDNLVRSYNKALKKNAPYPIFAIKNGPKSHIGRHLMTSFLSMKGLTELTNVVGNWSDKRASAVARTTYTHQITAIPDHYFALVSRYYAYDPISKEMIALKDETNPIEEWQHIEQLKGSAEGSIRYPAWNGIISQEVLDYLSSYINRRI", "modifications": "fused to CIDD pair"}, "B6": {"name": "Flp 27: Flp (SEQ ID NO: 1) split into aa 1-27 and 28-423, fused to CIDD pair (protein)", "chain 1": "MSQFDILCKTPPKVLVRQFVERFERPS", "chain 2": "GEKIASCAAELTYLCWMITHNGTAIKRATFMSYNTIISNSLSFDIVNKSLQFKYKTQKATILEASLKKLIPAWEFTIIPYNGQKHQSDITDIVSSLQLQFESSEEADKGNSHSKKMLKALLSEGESIWEITEKILNSFEYTSRFTKTKTLYQFLFLATFINCGRFSDIKNVDPKSFKLVQNKYLGVIIQCLVTETKTSVSRHIYFFSARGRIDPLVYLDEFLRNSEPVLKRVNRTGNSSSNKQEYQLLKDNLVRSYNKALKKNAPYPIFAIKNGPKSHIGRHLMTSFLSMKGLTELTNVVGNWSDKRASAVARTTYTHQITAIPDHYFALVSRYYAYDPISKEMIALKDETNPIEEWQHIEQLKGSAEGSIRYPAWNGIISQEVLDYLSSYINRRI", "modifications": "fused to CIDD pair"}, "B7": {"name": "Flp 374: Flp (SEQ ID NO: 1) split into aa 1-374 and 375-423, fused to CIDD pair (protein)", "chain 1": "MSQFDILCKTPPKVLVRQFVERFERPSGEKIASCAAELTYLCWMITHNGTAIKRATFMSYNTIISNSLSFDIVNKSLQFKYKTQKATILEASLKKLIPAWEFTIIPYNGQKHQSDITDIVSSLQLQFESSEEADKGNSHSKKMLKALLSEGESIWEITEKILNSFEYTSRFTKTKTLYQFLFLATFINCGRFSDIKNVDPKSFKLVQNKYLGVIIQCLVTETKTSVSRHIYFFSARGRIDPLVYLDEFLRNSEPVLKRVNRTGNSSSNKQEYQLLKDNLVRSYNKALKKNAPYPIFAIKNGPKSHIGRHLMTSFLSMKGLTELTNVVGNWSDKRASAVARTTYTHQITAIPDHYFALVSRYYAYDPISKEMIAL", "chain 2": "KDETNPIEEWQHIEQLKGSAEGSIRYPAWNGIISQEVLDYLSSYINRRI", "modifications": "fused to CIDD pair"}, "B8": {"name": "Flp 396: Flp (SEQ ID NO: 1) split into aa 1-396 and 397-423, fused to CIDD pair (protein)", "chain 1": "MSQFDILCKTPPKVLVRQFVERFERPSGEKIASCAAELTYLCWMITHNGTAIKRATFMSYNTIISNSLSFDIVNKSLQFKYKTQKATILEASLKKLIPAWEFTIIPYNGQKHQSDITDIVSSLQLQFESSEEADKGNSHSKKMLKALLSEGESIWEITEKILNSFEYTSRFTKTKTLYQFLFLATFINCGRFSDIKNVDPKSFKLVQNKYLGVIIQCLVTETKTSVSRHIYFFSARGRIDPLVYLDEFLRNSEPVLKRVNRTGNSSSNKQEYQLLKDNLVRSYNKALKKNAPYPIFAIKNGPKSHIGRHLMTSFLSMKGLTELTNVVGNWSDKRASAVARTTYTHQITAIPDHYFALVSRYYAYDPISKEMIALKDETNPIEEWQHIEQLKGSAEG", "chain 2": "SIRYPAWNGIISQEVLDYLSSYINRRI", "modifications": "fused to CIDD pair"}}, "data": [{"tested_on": "VloxP", "experiment": "Gibberellin ester (GIB)-induced split-VCre rejoinder, GFP reporter", "assay_type": "cell-based, human", "conditions": "GAI/GID1 CIDD pair; with vs without GIB", "procedure": "FIGS. 42A-42B show results of gene expression of different split-recombinase Cre (SEQ ID NO: 74) or VCre fragments (SEQ ID NO: 16).\n(§1) DNA was transfected into the human embryonic kidney cell line (HEK293FT) using a polyethylenimine (PEI) protocol. Cells were plated onto 48-(2504) or 96-well (1004) plates the day prior to transfection (200,000 cells/mL), such that the cells were 50-70% confluent the day of transfection. Cells were kept in a humidified incubator at 37° C. and 5% CO2 and maintained in DMEM medium (Corning) with 10% Heat Inactivated Fetal Bovine Serum (Life Technologies), 50 U.I./mL penicillin/50 μg/mL streptomycin (Corning), 2 mM glutamine (Corning) and 1 mM sodium pyruvate (Lonza). PEI stocks were made from linear polyethylenimine (Polysciences 23966-2) and were dissolved at a concentration of 0.323 g/L in deionized water with the assistance of concentrated hydrochloric acid and sodium hydroxide and then filtered sterilized (0.24 μm). PEI stocks were stored at −80° C. until use and warmed to room temperature prior to usage. For 48-well plate transfections, DNA (1000 ng, 50 ng/4) was dissolved and brought up to a volume of 50 μL using 0.15 M sodium chloride (NaCl, Fisher Scientific). DNA-NaCl solutions were then mixed with 50 μL of a PEI-NaCl mixture (8 uL PEI: 42 uL NaCl). These solutions were then incubated at room temperature for ten minutes and 25 μL was carefully dropped into individual wells of HEK293FT cells (250 ng DNA/well). Similarly, for 96-well plate transfections, DNA (500 ng, 50 ng/4) was dissolved and brought up to a volume of 25 μL using 0.15 M sodium chloride (NaCl). DNA-NaCl solutions were then mixed with 25 μL of a PEI-NaCl (4 uL PEI: 21 uL NaCl) mixture. These solutions were then incubated at room temperature for ten minutes and 10 μL was carefully dropped into individual wells of HEK293FT cells (100 ng DNA/well). Electronic space-adjustable multichannel pipettors (Integra Biosciences) were utilized throughout the process for rapid aspiration and dispensing of molecular and cellular reagents. A Countess II image-based cell counter (Life Technologies) was used for measuring human cell population densities.\nRapamycin analog (Clontech A/C heterodimerizer AP21967, 0.5 mM) was used as a 1000× stock for chemical induction experiments. […]\n(§2) Two days post-transfection and after trypsinization (0.05% Trypsin/0.53 mM EDTA, Corning) and resuspension, all HEK293FT cell populations were analyzed using a Becton Dickinson (BD) LSRFortessa SORP flow cytometer with HTS. […]", "values": [{"molecule": "B1", "GFP expression of split-VCre by split site (S)": "result in GFP expression in the presence of GIB"}, {"molecule": "B2", "GFP expression of split-VCre by split site (S)": "result in GFP expression in the presence of GIB"}, {"molecule": "B3", "GFP expression of split-VCre by split site (S)": "result in GFP expression in the presence of GIB"}, {"molecule": "B4", "GFP expression of split-VCre by split site (S)": "result in GFP expression in the presence of GIB"}]}, {"tested_on": "pCAG-FRT-Neo-FRT-GFP reporter", "experiment": "Gibberellin ester (GIB)-induced split-Flp rejoinder, GFP reporter", "assay_type": "cell-based, human", "conditions": "GAI/GID1 CIDD pair; with vs without GIB", "procedure": "Full length FlpO and split Flp vectors were tested for induction of recombinase activity on a pCAG-FRT-Neo-FRT-GFP reporter with and without the presence of gibberellin ester (GIB).\nFIGS. 43A-43E show results of gene expression of different split-recombinase Flp (SEQ ID NO: 1) or B3 fragments (SEQ ID NO: 19). […] FIGS. 43B-43E show the GFP expression levels of different amino acid residue of split sites (S) of Flp amino acid sequence (top; shown in blue) and amino acid residue of split sites (S) of B3 amino acid sequence (below, shown in orange).\nas §1, with “A Countess II image-based cell counter (Life Technologies) was used for measuring human cell population densities.” left out\nas §2", "values": [{"molecule": "B5", "GFP expression of split-Flp by split site (S)": "result in GFP expression in the presence of GIB"}, {"molecule": "B6", "GFP expression of split-Flp by split site (S)": "result in GFP expression in the presence of GIB"}, {"molecule": "B7", "GFP expression of split-Flp by split site (S)": "result in GFP expression in the presence of GIB"}, {"molecule": "B8", "GFP expression of split-Flp by split site (S)": "result in GFP expression in the presence of GIB"}]}]}
